Measured values published in the supplement of paper PMC9170038.

Tested on: MS2 coat protein
Assay: apparent KD of MS2 coat protein; designed switch direction (-1 OFF switch, 1 ON switch): -1; higher = weaker reporter binding
Procedure, shortened: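 The reported apparent KD is a per-design median over clusters, from curve fits of normalised cluster fluorescence. Protein titrations used SNAP-549-labelled MS2 coat protein, doubled from 0.7 or 1.5 nM to 3 µM, in Tris-HCl pH 7.5 buffer with KCl, MgCl2, BSA, DTT, tRNA and Tween-20, with no input, 200 uM small-molecule ligand, or an oligonucleotide input. The RNA switches were transcribed on Illumina chips by stalled E. coli RNA polymerase.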

[1] = Eterna round: R95, input ligand: FMN 200 uM
[2] = Eterna round: R95, input ligand: microRNA oligo, concentration not stated
[3] = Eterna round: R95, input ligand: none

| Sequence | apparent KD of MS2 coat protein [1] [nM] | apparent KD of MS2 coat protein [2] [nM] | apparent KD of MS2 coat protein [3] [nM] | apparent KD of MS2 coat protein (input ligand: FMN 200 uM) [nM] | apparent KD of MS2 coat protein (input ligand: none) [nM] | apparent KD of MS2 coat protein (input ligand: microRNA oligo, concentration not stated) [nM] |
| --- | --- | --- | --- | --- | --- | --- |
| CAGUACUGAGGAUAUACAUGAGGAUCACCCAUGUGUCCUAGCUAGGAAACUAGCAAAAGUAGAAGGCAGUACUG [Fiskers Ex 3 828 mod 5] (puzzle: Exclusion 3) | 249 | 21.2 | 22.9 |  |  |  |
| CAGUACUGAGGAUAUACAUGAGGAUCACCCAUGUGUCCUCUAUUAGGAAACUAGUUAUGUAGAAGGCAGUACUG [Omei Ex3 Mod of Eli 4.27 v10] (Eterna round: R97, puzzle: Exclusion 3) |  |  |  | 1060 | 1050 |  |
| CAGUACUGAGGAUAUACAUGAGGAUCACCCAUGUGUGUGAAAUUUAUGUGGUUGUUUUGUAGAAGGCAGUACUG [JR_Ex3_Sub029] (Eterna round: R97, puzzle: Exclusion 3) |  |  |  | 92.1 | 855 |  |
| CAGUACUGAGGAUAUACAUGAGGAUCACCCAUGUGUGUGAGAAAAGGAAGAAAAGAAUGUAGAAGGCGGUGCUG [JR_Ex3_Sub040] (Eterna round: R97, puzzle: Exclusion 3) |  |  |  | 240 | 486 |  |
| CAGUACUGAGGAUAUACAUGAGGAUCACCCAUGUGUGUGAGAAUUGUGUGGUUGUUUUGUAGAAGGCGGUGCUG [JR_Ex3_Sub032] (Eterna round: R97, puzzle: Exclusion 3) |  |  |  | 326 | 346 |  |
| CAGUACUGAGGAUAUACAUGAGGAUCACCCAUGUGUUCCAGCUAGGAAACUAGCAAAAUUAGAAGGCAGUACUG [salish99_ex3_r3_087] (puzzle: Exclusion 3) |  | 11.3 |  |  |  |  |
| CAGUACUGAGGAUAUACAUGAGGAUCACCCAUGUGUUCCAGCUAGGAAACUAGCAAAUGUAGAAGGCAGUACUG [Ex3: 827] (Eterna round: R96, puzzle: Exclusion 3) |  |  |  |  |  | 216 |
| CAGUACUGAGGAUAUACAUGAGGAUCACCCAUGUGUUCCAGCUAGGAAACUAGCAAAUGUAGAAGGCAGUACUG [Salish 065 m8] (Eterna round: R97, puzzle: Exclusion 3) |  |  |  | 45.1 | 323 |  |
| CAGUACUGAGGAUAUACAUGAGGAUCACCCAUGUGUUCCAGCUAGGAAACUAGCAAAUGUAGAAGGCAGUACUG [salish99_ex3_r3_089 (STABLE!)] (puzzle: Exclusion 3) | 94.1 | 217 | 234 |  |  |  |
| CAGUACUGAGGAUAUACAUGAGGAUCACCCAUGUGUUCCAGCUAGGAAACUAGCAAUGGAAGAAGGCAGUACUG [Salish 065 m1] (Eterna round: R97, puzzle: Exclusion 3) |  |  |  | 18.8 | 21.6 |  |
| CAGUACUGAGGAUAUACAUGAGGAUCACCCAUGUGUUCCAGCUAGGAAACUAGCGAAUGUAGAAGGCAGUACUG [jl-ex3-4.22 salish99 mod] (Eterna round: R97, puzzle: Exclusion 3) |  |  |  | 451 | 355 |  |
| CAGUACUGAGGAUAUACAUGAGGAUCACCCAUGUGUUCCAGCUAGGAAAGUAGCAAAAGUAGAAGGCAGUACUG [salish99_ex3_r3_072] (puzzle: Exclusion 3) | 291 | 26.7 | 21.6 |  |  |  |
| CAGUACUGAGGAUAUACAUGAGGAUCACCCAUGUGUUCCAGCUAGGAUACUAGCAAUGGAAGAAGGCAGUACUG [Mat - Exclusion 3 - Eli Mod - D1] (Eterna round: R97, puzzle: Exclusion 3) |  |  |  | 17.2 | 16.8 |  |
| CAGUACUGAGGAUAUACAUGAGGAUCACCCAUGUGUUCCUGCUAGGAUACUAGCAAGGGUAGAAGGCAGUACUG [Mat - Exclusion 3 - Eli Mod - D4] (Eterna round: R97, puzzle: Exclusion 3) |  |  |  | 59.4 | 19.7 |  |
| CAGUACUGAGGAUAUACAUGAGGAUCACCCAUGUGUUGCAGCUAGGAAACUAGCAAAAGUAGAAGGCAGUACUG [salish99_ex3_r3_081] (puzzle: Exclusion 3) |  | 12 |  |  |  |  |
| CAGUACUGAGGAUAUACAUGAGGAUCACCCAUGUUAGAGAUACUAGUGAGGUCGAUUAGUAGAAGGCAGUACUG [Mat X3R4 m24] (Eterna round: R97, puzzle: Exclusion 3) |  |  |  | 557 | 44.9 |  |
| CAGUACUGAGGAUAUACAUGAGGAUCACCCAUGUUCUUCAGCUAGGAUACUAGCAAAGGUAGAAGGCAGUACUG [Mat - Exclusion 3 - Eli Mod - D28] (Eterna round: R97, puzzle: Exclusion 3) |  |  |  | 611 | 30.1 |  |
| CAGUACUGAGGAUAUACAUGAGGAUCACCCAUGUUCUUCGGCUAGGAUACUAGCAAAGGUAGAAGGCAGUACUG [Mat - Exclusion 3 - Eli Mod - D27] (Eterna round: R97, puzzle: Exclusion 3) |  |  |  | 144 | 18.7 |  |
| CAGUAUUGAGGAUAUACAUGAGGAUCACCCAUGUGUUCCAGCUAGGAAACUAGCAAAAGUAGAAGGCAGUACUG [salish99_ex3_r3_085] (puzzle: Exclusion 3) |  | 21 |  |  |  |  |
| CAGUGACAUGAGGAUCACCCAUGUCAGGAUAUCUGUACCAUCCGACGGAGGUCCAGACAGAGAAGGGACUUGGG [Eternabot (L1) Solution 31] (Eterna round: R97, puzzle: Exclusion 1) |  |  |  | 76.9 | 49.9 |  |
| CAUACAGUAGUUAGGAUAUUGCAACACACACGGAACGAGAAGGGACAUGAGGAUCACCCAUGUAGACUGUAAAG [EX-4 Malc #6] (puzzle: Brourd's mod of Exclusion 4) | 20.7 | 27.2 | 24.5 |  |  |  |
| CAUACAGUAGUUAGGAUAUUGCAACGCACACGGAACGAGAAGGGACAUGAGGAUCACCCAUGUAGACUGUAAAG [EX-4 Malc #7] (puzzle: Brourd's mod of Exclusion 4) | 20.1 | 18.5 | 24.7 |  |  |  |
| CAUACUAAAGUCAGGAUAUGCGGCCGAAUACGGGUGUAGAAGGGACAUGAGGAUCACCCAUGUAGAUAGUAAAG [EX-4 Malc #17] (puzzle: Brourd's mod of Exclusion 4) | 29.1 | 23.1 | 22.2 |  |  |  |
| CAUACUCAAGUCAGGAUAUAGAGUCGGAUACGGGUCUAGAAGGGACAUGAGGAUCACCCAUGUAGAGAGUAAAG [EX-4 Malc #24] (puzzle: Brourd's mod of Exclusion 4) | 62.7 | 30.9 | 30.8 |  |  |  |
| CAUACUCAAGUCAGGAUAUAGUCUCGGAUACGGAACUAGAAGGGACAUGAGGAUCACCCAUGUAGAGAGUAAAG [EX-4 Malc #27] (puzzle: Brourd's mod of Exclusion 4) | 63.2 | 37.8 | 52.2 |  |  |  |
| CAUACUGAAGUUAGGAUAUUCGGCCGAAUACGGAUGGAGAAGGGACAUGAGGAUCACCCAUGUAGAUAGUAAAG [EX-4 Malc #14] (puzzle: Brourd's mod of Exclusion 4) | 26.1 | 21.7 | 27.6 |  |  |  |
